Test results reported in patent US20100004165A1, “Novel Protein Transduction Domains and Uses Therefor” (The Arizona Board of Regents, a body corporate acting on …, priority 2005, published 2010).
Read-outs that look alike come from different tables or passages of the source. Square brackets hold non-standard residues; d marks the D form. Ends that are not written are not given here. * marks the point of attachment. FITC = O=C1OC2(c3ccc(O)cc3Oc3cc(O)ccc32)c2ccc(NC(=S)*)cc21; pS = N[C@@H](COP(=O)(O)O)C(=O)O; βAla = NCCC(=O)O

Key:
[1] = tested on: porcine ear skin; test: In vitro skin penetration and transdermal delivery, porcine ear skin in Franz diffusion cell, spectrofluorimetry (Example 3); settings: for penetration in both SC and [E+D] compared with nonconjugated P20: all time points studied (0.5-8 h), p<0.05; for transdermal delivery: amount in the receptor phase: detected only at 8 hours post-application; for course of concentration in [E+D]: from 0.5 to 4 hours post-application, no further increase between 4 and 8 hours; for time of maximal rate of penetration in the whole skin (SC+[E+D]): post-application
Procedure: Fluorescence microscopy was used to visualize the peptides in different skin layers.
Formulations: Except in the experiments involving chemical penetration enhancers, FITC-labeled peptides were dissolved in phosphate-buffered saline (PBS, 10 mM, pH 7.2); the peptide concentration was 100 μM. In the experiment involving penetration enhancers, PBS could not be used as a solvent because of the lipophilic nature of monoolein and oleic acid. Propylene glycol was used as a solvent, since it solubilizes both lipids and peptides. […] The formulations were prepared by mixing monoolein or oleic acid with propylene glycol and adding the peptides to the system immediately thereafter.
Porcine ear skin was used as model skin for in vitro skin penetration studies because of its similarity with human skin, especially regarding histological and biochemical properties and permeability to drugs (33). Freshly excised porcine ears were obtained from a local abattoir. The skin from the outer surface of the ear was carefully dissected; making sure that the subcutaneous fat was maximally removed (34). Maximum care was taken to maintain the integrity of the skin, which was assured by histology. The cleaned porcine ear skin was immediately mounted in a Franz diffusion cell (diffusion area of 1 cm^2; Laboratory Glass Apparatus, Inc, Berkeley, Calif., USA), with the stratum corneum facing the donor compartment (where the formulation was applied) and the dermis facing the receptor compartment, which was filled with PBS (100 mM, pH 7.2, 3 mL). The receptor phase was maintained at 37° C. and under constant stirring. To achieve higher reproducibility, the skin samples were equilibrated to the diffusion cell conditions for 30 minutes before application of any formulation.
PBS solutions or propylene glycol formulations of the peptides (70 μL each) were applied to the skin surface (donor compartment). […] The concentrations of FITC-P20 (SEQ ID NO: 9), FITC-YARA-P20 (SEQ ID NO: 42), and FITC-TAT-P20 (SEQ ID NO: 43) in the skin and receptor phase were determined at 0.5, 1, 2, 4, and 8 hour post-application.
At the end of the experiment, skin surfaces were thoroughly washed with distilled water to remove excess formulation and carefully wiped with a tissue paper. To separate the stratum corneum (SC) from the remaining epidermis (E) and dermis (D), the skin was subjected to tape stripping. The skin was stripped with 15 pieces of adhesive tape (3M, St. Paul, Minn., USA), and the tapes containing the SC were immersed in 3 mL of a water:methanol (1:1 v/v) solution, vortexed for 2 min, and bath sonicated for 30 minutes. The remaining [E+D] was cut in small pieces, vortexed for 2 minutes in 2 mL of a water:methanol (1:1 v/v) solution, and homogenized using a tissue grinder for 1 minute and bath sonication for 30 minutes. The resulting mixture was centrifuged for 1 minute. The peptide present in the receptor phase was concentrated (10×) as follows. Samples (2 mL) of the receptor phase were lyophilized for 24 hours, and the residue was dissolved in 200 μL of a hidroalcoholic (20% of ethanol) solution.
All solutions were subjected to fluorimetry analysis using a Gemini SpectraMax™ platereader (Molecular Devices, Sunnyvale, Calif., USA) with excitation at 495 nm and emission at 518 nm. […] To evaluate the recovery of the peptides from the skin in the extraction procedure, tissues sections (1 cm^2) were spiked with 20 μL of 0.2 and 0.5 mM solutions of the peptides. The skin sections were homogenized using a tissue grinder, vortex-mixer, and bath sonicator, as described above. […] We accounted for such a recovery percentage in the quantification of peptides.

[2] = tested on: porcine ear skin; test: Fluorescence microscopy of skin sections after peptide application
Source text: The skin sections (8 μm) were mounted on glass slides. The slides were visualized without any additional staining or treatment through a 20× objective using a Zeiss microscope (Carl Zeiss, Thornwood, N.Y., USA) equipped with a filter for FITC and AxioVision software.

[3] = tested on: 3T3 fibroblasts; test: Transduction of FITC-labeled peptides into 3T3 fibroblasts (fluorescence imaging); assay type: cell-based; settings: 50 μM, 1 hour, media with or without serum
Procedure: FITC-(b)[…] (SEQ ID NO: 37)(WLRRIKA (SEQ ID NO: 3) monomer), FITC-(b)[…] (SEQ ID NO: 38)(WLRRIKA (SEQ ID NO: 3) dimer), and FITC-(b)[…] (SEQ ID NO: 39)(WLRRIKA (SEQ ID NO: 3) trimer) were synthesized on a 0.2 mmol scale using Fmoc-based solid phase peptide synthesis. The peptides were solubilized in water to create 3 mM stock solutions. 3T3 fibroblasts, cultured in Dulbecco's Modified Eagle Medium (DMEM) with 2 mM glutamine, pen/strep antibiotic, and 10% fetal bovine serum (FBS), were seeded at a density of 50,000 cells per well (1 ml of 50,000 cells/ml) in 4-well chambered slides (4 slides were used). The slides were incubated at 37° C. with 5% CO2 in a humidified incubator for 4 hours to allow the cells to adhere to the slides. After 4 hours, each well was washed 3 times with phosphate buffered saline (PBS). 50 μl of a 3 mM stock of each peptide as well as a 3 mM stock of fluorescein in water were added to 15 ml tubes containing 3 ml of DMEM with 2 mM glutamine, antibiotic, and 10% FBS and to 15 ml tubes containing 3 ml of serum-free DMEM with 2 mM glutamine and antibiotic. Treatments were performed in duplicate for both serum-containing and serum-free DMEM. On each slide system, each well received media (either with or without serum) with fluorescein, WLRRIKA (SEQ ID NO: 3) monomer, WLRRIKA (SEQ ID NO: 3) dimer, or WLRRIKA (SEQ ID NO: 3) trimer. In all cases, the final peptide or fluorescein concentration was 50 μM per well. Once the treatments were added, the slides were incubated at 37° C. with 5% CO2 in a humidified incubator for 1 hour. Then, each well was washed with PBS 3 times. Following the PBS wash, 0.2 ml trypsin was added to each well to digest residual peptide bound to the outer cellular membranes, and the slides were incubated at 37° C. for 10 minutes. To inactivate the trypsin, 1 ml DMEM with serum was added to each well, and the slides were incubated for 4 hours to allow cells to reattach to the slides. After 4 hours, the cells were washed 3 times in PBS, and 1 ml of DMEM with serum was added to each well. Then, the slides were imaged using a 40× objective. […]

[4] = tested on: porcine ear skin; test: Ex vivo skin transduction, porcine ear skin in modified Franz diffusion cell (Example 2); assay type: in vitro ADME; settings: for skin penetration: 100 uM, conjugated or alone (FIG. 1, Panel C)
Procedure: The ex vivo model selected for skin transduction studies was freshly excised porcine ears. […] The system was maintained at 37° C. and under constant stirring. […] The amount of peptides that permeated across the skin was determined in the receptor phase; 1.5 mL of the receptor phase was withdrawn, lyophilized and the residue was suspended in 150 μL of water. […] Standard curves of the peptides were used as reference.

[5] = tested on: Rat aorta; test: Vasorelaxation of rat aorta rings pre-contracted with KCl (muscle bath)
Procedure: Rat aorta was isolated and dissected free from connective and fat tissue. Transverse rings, 3.0 mm in width, were cut and tied to silk suture. The tissue was suspended in a muscle bath containing a bicarbonate buffer (120 mM NaCl, 4.7 mM KCl, 1.0 mM MgSO4, 1.0 mM NaH2PO4, 10 mM glucose, 1.5 mM CaCl2, and 25 mM […], pH 7.4) and equilibrated with 95% O2/5% CO2 at 37° C. The rings were fixed at one end to a stainless steel wire and attached to a force transducer in muscle perfusion system (Radnotti). The rings were then progressively stretched, and the isometric force generated in response to 110 mM KCl (with equimolar replacement of NaCl in bicarbonate buffer) was determined until the consistent maximal force was produced. Agonists and peptide was added directly to the baths. Tissue that was pre-contracted with 110 mM potassium chloride (KCl) followed by 1.0 mM WL-P20 ([…]p[…], pS is phosphoserine) (SEQ ID NO: 10), where pS is phosphoserine) relaxed compared to untreated control (13% relaxation at 10 minutes, 50% relaxation at 30 minutes, and maximum 88% relaxation at ˜60 minutes, FIG. 4). Percent relaxation was calculated relative to maximum force generated with KCl. […] Such a difference may result from different mechanisms of penetration and/or intracellular localization.

[6] = tested on: primary rat astrocyte cells; test: Transduction across cell membranes in primary rat astrocyte cells; assay type: cell-based
Procedure: The in vitro model used to assess transduction across cell membranes was primary rat astrocyte cells. Cells were isolated as described (Innocenti et. al., J. Neurosci. 20:1800-1808, 2000), seeded at ˜3×10^4 cells/cm^2, and cultured in full serum (10% FBS in α-MEM) overnight. Some cells were serum starved by culturing in 0.5% FBS for 1-24 hours prior to treatment with transduction peptides.

[7] = PBS vehicle, 4 hours post-application

## YGRKKRRQRRR [TAT]
[1]; 4 hours post-application
  influence of propylene glycol on skin penetration compared to PBS: did not influence
[1]; [7]
  amount penetrated into the skin (SC+[E+D]) relative to amount that permeated across the skin: 30 times
  transdermal delivery: amount found in the receptor phase: 0.058 ± 0.008 nmol
[1]; propylene glycol, monoolein 10% w/w or oleic acid 5% w/w, 4 h
  effect of monoolein or oleic acid on topical or transdermal delivery: failed to further increase
[2]; 4 hours post-application
  localisation of fluorescence in skin layers: strong fluorescent staining of SC and viable epidermis

## FITC-(b)AWLRRIKAWLRRIKA [WLRRIKA dimer]
[3]
  fluorescence within the cells (ability to penetrate the cells): bright fluorescence within the cells

## YGRKKRRQRRRWLRRASAPLPGLK [TAT-P20]
[1]
  penetration in both SC and [E+D] compared with nonconjugated P20: significantly higher
  transdermal delivery: amount in the receptor phase: 0.027 ± 0.009 nmol
  course of concentration in [E+D]: progressively increased
  time of maximal rate of penetration in the whole skin (SC+[E+D]): 1 h
[2]; 4 hours post-application
  localisation of fluorescence in skin layers: strong fluorescence in the SC and viable epidermis

## YARAAARQARAWLRRASAPLPGLK (YARAAARQARAWLRRA[pS]APLPGLK; also: FITC label) [YARA-P20]
[4]
  skin penetration: significantly enhanced
[1]
  penetration in both SC and [E+D] compared with nonconjugated P20: significantly higher
  transdermal delivery: amount in the receptor phase: 0.031 ± 0.011 nmol
  course of concentration in [E+D]: progressively increased
  time of maximal rate of penetration in the whole skin (SC+[E+D]): 1 h
[2]; 4 hours post-application
  localisation of fluorescence in skin layers: strong fluorescence in the SC and viable epidermis
[5]
  time of maximum relaxation: 5 to 10 min

## WLRRIKAWLRRIKAWLRRIKA [W3]
[3]
  fluorescence within the cells (ability to penetrate the cells): bright fluorescence within the cells
[6]; 50 μM
  transduction: efficient transduction
[6]; 50 μM for 1 h
  persistence of transduction: at least 24 hours
[4]; 100 uM transduction domain, non-covalently bound (FIG. 1, Panel A)
  carrying of non-covalently bound P20 across the skin: did not carry P20
[4]
  skin penetration: significantly enhanced
[4]; 1 mM W3 used to carry P20 (FIG. 1, Panel B)
  skin penetration [E+D] of non-covalently bound P20: significant skin penetration

## YARAAARQARA
[1]
  amount penetrated into the skin (SC+[E+D]) relative to amount that permeated across the skin: 34 times
  effect of monoolein or oleic acid on topical or transdermal delivery: failed to further increase
  influence of propylene glycol on skin penetration compared to PBS: did not influence
  penetration in the SC and [E+D] relative to the control peptide FITC-YKAc: 8-10 times
  transdermal delivery: amount found in the receptor phase: 0.053 ± 0.009 nmol
[2]
  localisation of fluorescence in skin layers: strong fluorescent staining of SC and viable epidermis

## FITC-(b)AWLRRIKA ({FITC}-[βAla]WLRRIKA) [WLRRIKA monomer]
[3]
  fluorescence within the cells (ability to penetrate the cells): not able to penetrate the cells

## WL-scrP20: control, the pseudo-monomer WLRRIKA-(WL-scrP20)
[6]; 1 μM
  transduction: no transduction was observed
[6]; 25 μM
  transduction: no transduction was observed
[6]; 50 μM
  transduction: no transduction was observed
